Laboratory results from patent US7803750.

Biological target: tyrosinase protein of murine B16 melanoma tumors and melan-A murine melanocytes (murine) (UniProt P11344)
Assay: cell-based or functional assay

Chain of UniProt P11344 (P11344 19-533 limits assumed): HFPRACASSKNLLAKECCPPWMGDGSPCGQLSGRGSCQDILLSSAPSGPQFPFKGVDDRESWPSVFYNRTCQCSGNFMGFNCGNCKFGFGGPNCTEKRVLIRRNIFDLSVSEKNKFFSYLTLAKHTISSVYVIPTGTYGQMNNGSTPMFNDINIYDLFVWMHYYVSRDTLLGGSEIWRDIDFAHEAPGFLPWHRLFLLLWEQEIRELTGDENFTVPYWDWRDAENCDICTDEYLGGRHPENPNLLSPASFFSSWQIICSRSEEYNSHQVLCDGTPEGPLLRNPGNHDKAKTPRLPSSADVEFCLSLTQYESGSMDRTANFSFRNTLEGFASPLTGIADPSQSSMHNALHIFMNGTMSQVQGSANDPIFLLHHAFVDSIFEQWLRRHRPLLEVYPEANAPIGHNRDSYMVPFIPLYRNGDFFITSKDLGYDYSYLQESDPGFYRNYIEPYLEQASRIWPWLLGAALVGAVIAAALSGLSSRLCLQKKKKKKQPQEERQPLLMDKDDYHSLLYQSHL

epitope-tagged recombinant human (rh) ZAG (zinc alpha-2-glycoprotein) with myc and 6-His 3' epitope tags (from UniProt P25311 21-298)
decrease in color development with L-DOPA (tyrosinase activity in frozen sections of B16-V tumors): 25 to 50%
